Experimental data as given in the DeepSol protein solubility set.

Test: soluble on expression in E. coli; label from the status in PepcDB or PDB records

Sequence | soluble on expression in E. coli
MDQNIPCQFFSFENTALAVRHRKGHCFPGLVWLSGYQSDMLGSKAMLVDNFAQKNDLSCLRFDYSGHGESEGDFFQGTISRWVKESLAIFETYCEGPQILIGSSMGGWIALKLAMMLAQKNKRLAGMVLVAPAPDFTQTLVEPKLGLEEWKILEEKGYIERPAVGDEEPMPFTKGLIEDGRDNCVMKGCLDIGCPIHILQGMEDDKIPYQHTLTLMNHLPLHDVTLTLVRDADHRFSRPQDLECLETVLSILIDRINAG | not soluble
MAFFRLAALLWLGMLMSPVQAQSLSLQVLDAVVKDAVLADAEVQLGQASGRTDAQGRVTLEAADSPGSELLIRKLGYADLRAKCPCQGLSYAMSPVLKDPQSLRVVLSWSAPGEDLDAHLSYPHRLLYYATGTGPGARMNVDSTDSRGPETLTIEQPVPGDAYVYAVHDFTNGNNPESLRLGRSQAQVFVYKGPTLMRSYRVPQNRQGNLWVVFRLTANGQLQDIDRVLQGNEEVESRMSDLDPLLLANGKPIDEVLARDEGPVDAKSLNQKGEASYRKGDVGSAGIYYREAIELDPGFAQAYSNLALSNRKNSRPDEAVAADRQAIALASGPSAPTIRASAYYDMGRIYEDAGQLVTALEHYRKAREQKANPVYDKAIERLQNRLEHHHHHH | not soluble
MGSDKIHHHHHHMNFPIDEKLIREKQNELHIKDLGMASIRDLVALVTNLEKATGTKFCRMEMGVPGLPAPQIGIETEIQKLREGVASIYPNLDGLPELKQEASRFAKLFVNIDIPARACVPTVGSMQGCFVSFLVANRTHKNREYGTLFIDPGFNLNKLQCRILGQKFESFDLFEYRGEKLREKLESYLQTGQFCSIIYSNPNNPTWQCMTDEELRIIGELATKHDVIVIEDLAYFGMDFRKDYSHPGEPLYQPSVANYTDNYILALSSSKAFSYAGQRIGVLMISGKLYEREYPDLEESFGRLRFGEALSSSALYALSSGATHSAQWGMAAMLKACNDGEYNFRDSVIEYGRKARIMKKMFLDNGFNIVYDKDGNEPLADGFYFTVGYKGMDSSKLIEKFVRYGMCAITLKTTGSKRNEAMRICTSLLPESQFPDLEKRLQMLNAEG | not soluble
MSLENIEKIEVRGIRASNKANINEKRFSNAVVDAVTAEDIGKFPDSDVGQALGRVPGVTVGRTFGQGSSVSIRGTDPLMTLTTLNGQNVASTGWYDQMNVDRSFNYSMLPSELIGGMEVYKSTQANLVEGGIGGTVIVKTRKPLDMDANSVFASVKGEYGSVNEDVAPELSGLYSWKNDDETFGVLLAGSYIDREYLRTGTEADLDWGGRSSVQPSSFLQEQERTALDATVQFRPTDNLEFGAHVLSLKLGADSIGANMYIETDTNWGEGASHCKQFNAAGVCTLSVTPESDPSNVFFQNWARKGEMTSDTFELNADYKGDGFAISGVAGKTKAEGGTQMSANFGYGWWGDKFGQVKWAGTVDATGKQIDINGRDMGFTQDQLDTTVGTSTWTGIKGPNSDEETYLQLDVDFDLDFGVINKFETGVRYTQHEFEKSEYRAIYDPAKKNEFKTSDLYSGTMKLGYDGWTIPKADLDAMINATESLVDQFAYSRSAYGLIEEDNFSMYGMFSFDGEGFRGNFGLRYIQTDVTSSGHIIDNSPADILGVNQGWSEEIHSISDSYSDVLPSFNISFDLAPDLILRMSAGQAITRPNYDNLFLSTSTGYPDDRRGNEEITYGNPGLKPMKSSQADLSLEYYYGDGNLVSATYFIKDISNFIVATTQYNQQIGVVNNDLETPADNWTVNNYENAGGGEIDGIELQLNHAFENGFGVNANYTYADGTAPAEVYTDNIGMFTESSKHSANLVGYWENDDFSARAAYNWRSEYMVREYGKYYGNRMHDAFGTLDVTLGWNVTEAIALRLEIVNLTAEDDVQYGAAGVGTEVKPALQDDFPAWSFKGETTYKLGASFVFEGHHHHHH | not soluble
MSLSHIHFLIALATLVPVTAPAMQVSTQAPLVDATGQTLHIRGVTWPGFDRAGLTAVGMRNNTLAQLLDRMQASDINAVRVPVCAAVLQRAPVAAAEVAGDSTLRGLDSLQLLDAVVHAATQRGMHVMFAFADGGCDDRAPLLGAQQQAWTRGLVTLARRYGGNANVLGIDLGSSGYRNASWAGNAADQNWNRVASRAAAMVLAQAPRWVVGVEGVGSNAVCSDPGRKALGSNLQPFACVPLDIAPRHLVLMPKLAGPDRDTTDAFAAPGFAQALPAMWQRDFGQFAIDHTVVPVSLGGGLGDGDPRDPAWQTALSGYLANTGMRSAFLGSWETSNANNGGLLAPDGSPRADKLLILRHAWGMLPVMPAIATATGDSTKNASGTKGWNSTFTGTATSTGSGYSGGAVLLDPIPSDAFITALNSTQMNFGGIKAALAGAYLEVTGPKGKTTVYVTDLYPDGASGGLDLSYNAFAAIGNLADGHIPISWKVVRAPITGNVQYRIKEGSSRYWAAIQVRHHIYPVVKLEVKQGSTWTSLPKTPYNHFVGTNLGNKPLSIRITDIRGKVIADKIPALPEYGGSAAYFEPGHVQFPEGHHHHHH | soluble
MGKEVMGKKENEMAQEKERPAGSQSLFRGLMLIEILSNYPNGCPLAHLSELAGLNKSTVHRLLQGLQSCGYVTTAPAAGSYRLTTKFIAVGQKALSSLNIIHIAAPHLEALNIATGETINFSSREDDHAILIYKLEPTTGMLRTRAYIGQHMPLYCSAMGKIYMAFGHPDYVKSYWESHQHEIQPLTRNTITELPAMFDELAHIRESGAAMDREENELGVSCIAVPVFDIHGRVPYAVSISLSTSRLKQVGEKNLLKPLRETAQAISNELGFTVRDDLGAIT | soluble
MSVINKIVARRTQLSQSGRLVGDWIVENAEKAAQLTSQELAAQVKVSQSSIVKFTQRIGFKGYSEFKLALNEEIGRKHAMQSTPLHSDILADDPIAVISQKLVKAKTDAMFQTTNALSYEACHQAVKWLSEARRVQVVGIGGSALTAKDLSFKLLKLGITALSEQDSHVQIAVARTLSSEDVQIAISYSGERKEILVAAEAAKEQGAKVIALSAPGRSRLRGIADITFDTIANETEHRSSSIASRTAQNVITDLLFIILVQQRDESARQLISDISTDIKQILT | not soluble
MAEMDERFQQILSWQQMDQNKAISQILQESAMQKAAFEALQVKKDLMHRQIRSQIKLIETELLQLTQLELKRKSLDTESLQEMISEQRWALSSLLQQLLKEKQQREEELREILTELEAKSETRQENYWLIQYQRLLNQKPLSLKLQEEGMERQLVALLEELSAEHYLPIFAHHRLSLDLLSQMSPGDLAKVGVSEAGLQHEILRRVQELLDAARIQPELKPPMGEVVTPTAPQEPPESVRPSAPPAELEVQASECVVCLEREAQMIFLNCGHVCCCQQCCQPLRTCPLCRQDIAQRLRIYHSS | soluble
MPELPEVETSRRGIEPHLVGATILHAVVRNGRLRWPVSEEIYRLSDQPVLSVQRRAKYLLLELPEGWIIIHLGMSGSLRILPEELPPEKHDHVDLVMSNGKVLRYTDPRRFGAWLWTKELEGHNVLTHLGPEPLSDDFNGEYLHQKCAKKKTAIKPWLMDNKLVVGVGNIYASESLFAAGIHPDRLASSLSLAECELLARVIKAVLLRSIEQGGTTLKDFLQSDGKPGYFAQELQVYGRKGEPCRVCGTPIVATKHAQRATFYCRQCQK | not soluble
MDILKKIEKYREEEQRLKWEGTFADYLEIIKENPMVAQSAHSRVFNMIKDSGIEEIDGRKKYSFFDRELFGLEESLERLVEEYFHPAAKRLDVRKRILLLMGPVSGGKSTLVTMLKKGLEAYTLTDNGAVYAIKGCPMHEDPLHLIPHHLRDDFYREYGIRIEGSLSPLNVMRLEEEYGGRIEDVKVERIFFSEDKRTGIGTFSPSDPKSQDIADLTGSIDFSTIAEYGSESDPRAYRFDGELNKANRGMMEFQEMLKCDEKFLWHLLSLTQEGNFKAGRFALISADELIVAHTNETEYRSFISNKKNEALHSRIIVMPVPYNLKVSEEERIYEKMIAESDVADVHIAPHTLKVAAMFSILTRLKEPKRSD | not soluble
MIRSIFIPPTSITATSRLFYGMRAYSTKLEKASLQKYLHDPVKVTVIPITDKESFIYYKHTDNLFNSQSRILKAEKWIVEKSAKLWRKLKKSPKSYNKKIVSMVQSLLNSTPWSENSLLTIPSESYILKRIKGEKDKTQEIRLTLKDYTVKAEQVDTQPLHVYYPPGISSPDECLRQMKKLYQEGLIYHKKWTLYCLLGLPLTIPLILIPLIPNVPGFYLSYRAYVNIKAYLGAKHLKSLLESSKQNLEFRELLGYTEVYKRGTSSRTQGNQKESKGAPELLLNKKTLPLILDFLEVHELESDLNKVILQESKSQEKNKI | not soluble
MGSDKIHHHHHHMSKLDAFIQQAVTAMPISGTSLIASLYGDALLQRGGEVWLGSVAALLEGLGFGERFVRTALFRLNKEEWLDVVRIGRRSFYRLSDKGLRLTRRAEHKIYRASAPEWDGTWLLLLSEGLEKNVLADVKKQLLWQGFGALAPSLLASPSQKLADVQSLLHEAGVAENVICFEAHSPLALSRAALRDRVEECWHLTEQNEMYEAFIALFRPLLPLLRDSEPSELTPERCFQIQLLLIHFYRRVVLKDPLLPEELLPAHWAGQTARQLCINIYQRVSPGALAFVSEKGESSVGELPAPGPLYYQRFGGLPGA | not soluble
SRILVSIGESFGTSEKFQKINQMVCNSDRVLKRSAEGSNPPKPLKK | soluble
MSLSRPQFDPSAYAAQLEDKKSRLAGLLAPFAAPAPEVFESPREHYRLRAEFRLWRETGNEKRHYAMFEQGDKHTPILLEDFPIASRRINELMPRLKAAWADPALGFKLFQVEFLTTLAGDALITLCYHRPIDDAWRQAAEKLAAELGVNLVGRSRGKRIVVGRDYVEEELSVAGRRFRYRQPEGAFTQPNGEVNQKMLGWAYEALGQRDDDLLELYCGNGNFTLPLATRVRKVLATEISKSSVNAALANLADNAVDNVSLVRLSAEELTQALNEVRPFRRLADIDLKSYAFGSVFVDPPRAGMDPDTCELARRFERILYISCNPETLAQNIAQLHDTHRISRCALFDQFPYTHHMESGVLLEEGHHHHHH | soluble
MNNHSNKHWHLQMYLPEGKKGVQIRSEDMLKEPQPVIGTGEWNNRQCQDFKELHIGTIILVREGKKAIALCEVTSGCYTDKELHEKYRHSNFRNVKVLDFIAEKDQPPPRLFSQGTLKSCGEWTHQWEYIDKLISLMDKNNPIEEYSQLKEYAQLLESKKNIILQGAPGTGKTYTTASIAVHMCNKNFTDYTDHSKVIEEYERLRDTGQIAFCTFHQSMDYEDFVEGLKPEVKSNNVEYNVENGIFKSICEQAKTKEEADIITCIDKYLQSIKGYENKKKIPTISGRSDLWVWWIEGNDTISTRSAISKSEKGEQYSLSPLNIEKVKLQAIGEAIENNWRQYAQAFINAVKKEYQLDKQISDKPYVLIIDEINRGNVSKIFGELITLLEADKRSGAGSDSNHCISLILPYSKENFSVPSNLYIIGTMNTTDRSTGTIDYAVRRRFAFVTLKSSDKVIKEYAEKQSVEDNVRDASLALFTQINGNLKNDKESFIAKHKAADFELEDLKVGHSYFMAKDIDMLKMKMRYEVVPLIKEYIKDGILRGMQGDESYFEKWMNAECFHQSEPTTNDN | not soluble
MAHHHHHHMNRKRPRSPAGVQYWLMKSEPNKFSIDDLKKCTRSPWDGVRNYAARNNMKLMKVGDCVLFYHSNAKPSGVVGLASVVKTAYPDHTALDPKSEYYDARASKKNPWEMVDVQFEEKFASIVSLEELKKEKKLQAMQLFSQSRLSVQPVEKSEYDHVVSLGRKK | soluble
MGSDKIHHHHHHMPFRRPCAINRPPLTSGCQGHPLSSRRAAQGPGGFFYRHKDMAMTQKRALGLDFGTTNTVMALSDTGSASHSMRFTSSAGTDDSMRTALSFMKDAGLGAAALHVEAGQAAIRQFIDNAGDCRFLQSIKTFAASPLFQGTLIFAKRQSFEDLMEVFLRKLKTYAGSEWPGDVSTVIAGRPVRFAGSNPDETLALARYNEALTRAGFPEIHYVYEPVAAAYYFAQSLKKDANVLVADFGGGTTDYSLIRFETHAGKLSATPIGHSGVGVAGDHFDFRMIDNLVSPEIGKGSKFKSFDKVLDVPSGYYVNFGRWNQLSIFKTSKEFTDLKSLVRSALEPDKLELFIDLVEHDEGYPLYQAISATKMALSSAQEAEFNFSPLGKAGRKMVKRSDFNNWIADDLAKIEGALDEVLEKTKVAPEAIDKVFLTGGTSFVPAVRELFTRRFDADRIESGGELLSIAHGLAMIGESGDIQRWTA | not soluble
